Assay results as given in US20200165325A1.

Experiments:
[1] = molecular target: HIV-1 Env of strain Q259.d2.17 (HIV-1)
[2] = molecular target: HIV-1 Env of strain Du156.12 (HIV-1)
[3] = molecular target: HIV-1 Env of strain WITO4160.33 (HIV-1)
[4] = molecular target: HIV-1 Env of strain Q842.d12 (HIV-1)
[5] = molecular target: HIV-1 Env of strain C3347.c11 (HIV-1)
[6] = molecular target: HIV-1 Env of strain 1054_07_TC4_1499 (HIV-1)
[7] = molecular target: HIV-1 Env of strain ZM53M.PB12 (HIV-1)
[8] = molecular target: HIV-1 Env of strain REJO4541.67 (HIV-1)
[9] = molecular target: HIV-1 Env of strain 6540.v4.c1 (HIV-1)
[10] = molecular target: HIV-1 Env of strain 3016.v5.c45 (HIV-1)
[11] = molecular target: HIV-1 Env of strain T250-4 (HIV-1)
[12] = molecular target: HIV-1 Env of strain AC10.0.29 (HIV-1)
[13] = molecular target: HIV-1 Env of strain Du172.17 (HIV-1)
[14] = molecular target: HIV-1 Env of strain TRJO4551.58 (HIV-1)
[15] = molecular target: HIV-1 Env of strain ZM197M.PB7 (HIV-1)
[16] = molecular target: HIV-1 Env of strain CNE21 (HIV-1)
[17] = molecular target: HIV-1 Env of strain CNE30 (HIV-1)
[18] = molecular target: HIV-1 Env of strain RHPA4259.7 (HIV-1)
[19] = molecular target: HIV-1 Env of strain CAAN5342.A2 (HIV-1)
[20] = molecular target: HIV-1 Env of strain 1056_10_TA11_1826 (HIV-1)
[21] = molecular target: HIV-1 Env of strain T251-18 (HIV-1)
[22] = molecular target: HIV-1 Env of strain P1981_C5_3 (HIV-1)
[23] = molecular target: HIV-1 Env of strain ZM109F.PB4 (HIV-1)
[24] = molecular target: HIV-1 Env of strain T278-50 (HIV-1)
[25] = molecular target: HIV-1 Env of strain 0330.v4.c3 (HIV-1)
[26] = molecular target: HIV-1 Env of strain 6480.v4.c25 (HIV-1)
[27] = molecular target: HIV-1 Env of strain SC422661.8 (HIV-1)
[28] = molecular target: HIV-1 Env of strain Ce0393_C3 (HIV-1)
[29] = molecular target: HIV-1 Env of strain T255-34 (HIV-1)
[30] = molecular target: HIV-1 Env of strain Q769.d22 (HIV-1)
[31] = molecular target: HIV-1 Env of strain Ce703010054_2A2 (HIV-1)
[32] = molecular target: HIV-1 Env of strain 211-9 (HIV-1)
[33] = molecular target: HIV-1 Env of strain WEAU_d15_410_787 (HIV-1)
[34] = molecular target: HIV-1 Env of strain 3103.v3.c10 (HIV-1)
[35] = molecular target: HIV-1 Env of strain ZM233M.PB6 (HIV-1)
[36] = molecular target: HIV-1 Env of strain 3718.v3.c11 (HIV-1)
[37] = molecular target: HIV-1 Env of strain Ce2010_F5 (HIV-1)
[38] = molecular target: HIV-1 Env of strain CNE58 (HIV-1)
[39] = molecular target: HIV-1 Env of strain 6535.3 (HIV-1)
[40] = molecular target: HIV-1 Env of strain 928-28 (HIV-1)
[41] = molecular target: HIV-1 Env of strain Ce1176_A3 (HIV-1)
[42] = molecular target: HIV-1 Env of strain Ce2060_G9 (HIV-1)
[43] = molecular target: HIV-1 Env of strain P0402_c2_11 (HIV-1)
[44] = molecular target: HIV-1 Env of strain X2131_C1_B5 (HIV-1)
[45] = molecular target: HIV-1 Env of strain 6811.v7.c18 (HIV-1)
[46] = molecular target: HIV-1 Env of strain Q461.e2 (HIV-1)
[47] = molecular target: HIV-1 Env of strain CAP45.2.00.G3 (HIV-1)
[48] = molecular target: HIV-1 Env of strain 231966.c02 (HIV-1)
[49] = molecular target: HIV-1 Env of strain CNE17 (HIV-1)
[50] = molecular target: HIV-1 Env of strain CNE20 (HIV-1)
[51] = molecular target: HIV-1 Env of strain X1193_c1 (HIV-1)
[52] = molecular target: HIV-1 Env of strain 3415.v1.c1 (HIV-1)
[53] = molecular target: HIV-1 Env of strain CNE53 (HIV-1)
[54] = molecular target: HIV-1 Env of strain 0815.v3.c3 (HIV-1)
[55] = molecular target: HIV-1 Env of strain ZM249M.PL1 (HIV-1)
[56] = molecular target: HIV-1 Env of strain HIV-16845-2.22 (HIV-1)
[57] = molecular target: HIV-1 Env of strain THRO4156.18 (HIV-1)

**Q.** Which In vitro neutralization IC80 [1] does the source give for NIH45-46 IgG (wild type) (antibody) here?
**A.** 0.154 µg/mL

**Q.** What about the In vitro neutralization IC80 [2] of the same substance?
**A.** 0.054 µg/mL

**Q.** And the In vitro neutralization IC80 [3]?
**A.** 0.26 µg/mL

**Q.** What about the In vitro neutralization IC80 [4] of the same substance?
**A.** 0.073 µg/mL

**Q.** What about the In vitro neutralization IC80 [5] of the same substance?
**A.** 0.094 µg/mL

**Q.** What about the In vitro neutralization IC80 [6] of the same substance?
**A.** 0.404 µg/mL

**Q.** And the In vitro neutralization IC80 [7]?
**A.** 0.61 µg/mL

**Q.** What about the In vitro neutralization IC80 [8] of the same substance?
**A.** 0.035 µg/mL

**Q.** And the In vitro neutralization IC80 [9]?
**A.** > 50 µg/mL

**Q.** What about the In vitro neutralization IC80 [10] of the same substance?
**A.** > 50 µg/mL

**Q.** What about the In vitro neutralization IC80 [11] of the same substance?
**A.** > 50 µg/mL

**Q.** And the In vitro neutralization IC80 [12]?
**A.** 1.93 µg/mL

**Q.** What about the In vitro neutralization IC80 [13] of the same substance?
**A.** > 50 µg/mL

**Q.** And the In vitro neutralization IC80 [14]?
**A.** 0.13 µg/mL

**Q.** What about the In vitro neutralization IC80 [15] of the same substance?
**A.** 0.55 µg/mL

**Q.** What about the In vitro neutralization IC80 [16] of the same substance?
**A.** 38.1 µg/mL

**Q.** And the In vitro neutralization IC80 [17]?
**A.** 1.07 µg/mL

**Q.** And the In vitro neutralization IC80 [18]?
**A.** 0.047 µg/mL

**Q.** And the In vitro neutralization IC80 [19]?
**A.** 0.4 µg/mL

**Q.** And the In vitro neutralization IC80 [20]?
**A.** 0.447 µg/mL

**Q.** What about the In vitro neutralization IC80 [21] of the same substance?
**A.** 3.68 µg/mL

**Q.** And the In vitro neutralization IC80 [22]?
**A.** 0.24 µg/mL

**Q.** And the In vitro neutralization IC80 [23]?
**A.** 0.437 µg/mL

**Q.** And the In vitro neutralization IC80 [24]?
**A.** > 50 µg/mL

**Q.** And the In vitro neutralization IC80 [25]?
**A.** 0.3 µg/mL

**Q.** And the In vitro neutralization IC80 [26]?
**A.** 0.1 µg/mL

**Q.** What about the In vitro neutralization IC80 [27] of the same substance?
**A.** 0.13 µg/mL

**Q.** And the In vitro neutralization IC80 [28]?
**A.** 0.936 µg/mL

**Q.** What about the In vitro neutralization IC80 [29] of the same substance?
**A.** 3.44 µg/mL

**Q.** And the In vitro neutralization IC80 [30]?
**A.** 0.033 µg/mL

**Q.** What about the In vitro neutralization IC80 [31] of the same substance?
**A.** 0.538 µg/mL

**Q.** What about the In vitro neutralization IC80 [32] of the same substance?
**A.** > 50 µg/mL

**Q.** What about the In vitro neutralization IC80 [33] of the same substance?
**A.** 0.015 µg/mL

**Q.** What about the In vitro neutralization IC80 [34] of the same substance?
**A.** 6.15 µg/mL

**Q.** And the In vitro neutralization IC80 [35]?
**A.** 14.2 µg/mL

**Q.** And the In vitro neutralization IC80 [36]?
**A.** > 50 µg/mL

**Q.** What about the In vitro neutralization IC80 [37] of the same substance?
**A.** 0.357 µg/mL

**Q.** What about the In vitro neutralization IC80 [38] of the same substance?
**A.** 2.08 µg/mL

**Q.** What about the In vitro neutralization IC80 [39] of the same substance?
**A.** 0.54 µg/mL

**Q.** What about the In vitro neutralization IC80 [40] of the same substance?
**A.** 0.64 µg/mL

**Q.** What about the In vitro neutralization IC80 [41] of the same substance?
**A.** 3.17 µg/mL

**Q.** What about the In vitro neutralization IC80 [42] of the same substance?
**A.** 0.29 µg/mL

**Q.** And the In vitro neutralization IC80 [43]?
**A.** 0.214 µg/mL

**Q.** And the In vitro neutralization IC80 [44]?
**A.** 0.88 µg/mL

**Q.** And the In vitro neutralization IC80 [45]?
**A.** 0.113 µg/mL

**Q.** And the In vitro neutralization IC80 [46]?
**A.** 0.291 µg/mL

**Q.** What about the In vitro neutralization IC80 [47] of the same substance?
**A.** > 50 µg/mL

**Q.** What about the In vitro neutralization IC80 [48] of the same substance?
**A.** 9.64 µg/mL

**Q.** What about the In vitro neutralization IC80 [49] of the same substance?
**A.** 0.734 µg/mL

**Q.** And the In vitro neutralization IC80 [50]?
**A.** > 50 µg/mL

**Q.** And the In vitro neutralization IC80 [51]?
**A.** 0.064 µg/mL

**Q.** What about the In vitro neutralization IC80 [52] of the same substance?
**A.** 0.086 µg/mL

**Q.** What about the In vitro neutralization IC80 [53] of the same substance?
**A.** 0.039 µg/mL

**Q.** And the In vitro neutralization IC80 [54]?
**A.** 0.052 µg/mL

**Q.** What about the In vitro neutralization IC80 [55] of the same substance?
**A.** 0.053 µg/mL

**Q.** What about the In vitro neutralization IC80 [56] of the same substance?
**A.** 22.6 µg/mL

**Q.** And the In vitro neutralization IC80 [57]?
**A.** 8.22 µg/mL
